The chains are these.
B1: FLAG-TSC22D2 (full length, wild type) [human] / HA-NRBP1 WT [human] (parent complex)
chain 1: MSKMPAKKKSCFQITSVTTAQVATSITEDTESLDDPDESRTEDVSSEIFDVSRATDYGPEEVCERSSSEETLNNVGDAETPGTVSPNLLLDGQLAAAAAAPANGGGVVSARSVSGALASTLAAAATSAPAPGAPGGPQLAGSSAGPVTAAPSQPPTTCSSRFRVIKLDHGSGEPYRRGRWTCMEYYERDSDSSVLTRSGDCIRHSSTFDQTAERDSGLGATGGSVVVVVASMQGAHGPESGTDSSLTAVSQLPPSEKMSQPTPAQPQSFSVGQPQPPPPPVGGAVAQSSAPLPPFPGAATGPQPMMAAAQPSQPQGAGPGGQTLPPTNVTLAQPAMSLPPQPGPAVGAPAAQQPQQFAYPQPQIPPGHLLPVQPSGQSEYLQQHVAGLQPPSPAQPSSTGAAASPATAATLPVGTGQNASSVGAQLMGASSQPSEAMAPRTGPAQGGQVAPCQPTGVPPATVGGVVQPCLGPAGAGQPQSVPPPQMGGSGPLSAVPGGPHAVVPGVPNVPAAVPAPSVPSVSTTSVTMPNVPAPLAQSQQLSSHTPVSRSSSIIQHVGLPLAPGTHSAPTSLPQSDLSQFQTQTQPLVGQVDDTRRKSEPLPQPPLSLIAENKPVVKPPVADSLANPLQLTPMNSLATSVFSIAIPVDGDEDRNPSTAFYQAFHLNTLKESKSLWDSASGGGVVAIDNKIEQAMDLVKSHLMYAVREEVEVLKEQIKELVERNSLLERENALLKSLSSNDQLSQLPTQQANPGSTSQQQAVIAQPPQPTQPPQQPNVSSA
chain 2: not shown

In the test the parent is B1. The test is described as follows: co-immunoprecipitation (HA-IP) with immunoblot densitometry; HEK293 cells stably expressing HA-NRBP1, 36 hours after transfection; N = 2, n = 2; read off a plot.
For chain 1 R179A, the response was around 0.22. Under chain 1 R179E stands around 0.09.

On to chain 1 R161A, chain 1 F162A, for which the response was around 0.35. Take chain 1 R161E, chain 1 F162A, chain 1 R179E: the response was around 0.02.

For chain 1 R161A, the response is around 0.76.

The record behind these values is publication PMC12266122 (2025).
